Source: patent US20220268777A1

Assays:
protein PADI2 [1] = target: protein PADI2 (UniProt Q9Y2J8); test: sandwich ELISA, capture 197, dilution row F
[2] = target: protein PADI4 (peptidylarginine deiminase 4) antigen (human) (UniProt Q9UM07); test: sandwich ELISA, capture 197, dilution row F
protein PADI2 [3] = target: protein PADI2 (UniProt Q9Y2J8); test: sandwich ELISA, capture 197, dilution row G
[4] = target: protein PADI4 (peptidylarginine deiminase 4) antigen (human) (UniProt Q9UM07); test: sandwich ELISA, capture 197, dilution row G
protein PADI2 [5] = target: protein PADI2 (UniProt Q9Y2J8); test: sandwich ELISA, capture 197, dilution row A
[6] = target: protein PADI4 (peptidylarginine deiminase 4) antigen (human) (UniProt Q9UM07); test: sandwich ELISA, capture 197, dilution row A
protein PADI2 [7] = target: protein PADI2 (UniProt Q9Y2J8); test: sandwich ELISA, capture 197, dilution row H (maybe blank)
[8] = target: protein PADI4 (peptidylarginine deiminase 4) antigen (human) (UniProt Q9UM07); test: as above
protein PADI2 [9] = target: protein PADI2 (UniProt Q9Y2J8); test: sandwich ELISA, capture 197, dilution row E
[10] = target: protein PADI4 (peptidylarginine deiminase 4) antigen (human) (UniProt Q9UM07); test: sandwich ELISA, capture 197, dilution row E
protein PADI2 [11] = target: protein PADI2 (UniProt Q9Y2J8); test: sandwich ELISA, capture 197, dilution row D
[12] = target: protein PADI4 (peptidylarginine deiminase 4) antigen (human) (UniProt Q9UM07); test: sandwich ELISA, capture 197, dilution row D
protein PADI2 [13] = target: protein PADI2 (UniProt Q9Y2J8); test: sandwich ELISA, capture 197, dilution row B
[14] = target: protein PADI4 (peptidylarginine deiminase 4) antigen (human) (UniProt Q9UM07); test: sandwich ELISA, capture 197, dilution row B
protein PADI2 [15] = target: protein PADI2 (UniProt Q9Y2J8); test: sandwich ELISA, capture 197, dilution row C
[16] = target: protein PADI4 (peptidylarginine deiminase 4) antigen (human) (UniProt Q9UM07); test: sandwich ELISA, capture 197, dilution row C

UniProt Q9Y2J8, sequence (Q9Y2J8 whole entry): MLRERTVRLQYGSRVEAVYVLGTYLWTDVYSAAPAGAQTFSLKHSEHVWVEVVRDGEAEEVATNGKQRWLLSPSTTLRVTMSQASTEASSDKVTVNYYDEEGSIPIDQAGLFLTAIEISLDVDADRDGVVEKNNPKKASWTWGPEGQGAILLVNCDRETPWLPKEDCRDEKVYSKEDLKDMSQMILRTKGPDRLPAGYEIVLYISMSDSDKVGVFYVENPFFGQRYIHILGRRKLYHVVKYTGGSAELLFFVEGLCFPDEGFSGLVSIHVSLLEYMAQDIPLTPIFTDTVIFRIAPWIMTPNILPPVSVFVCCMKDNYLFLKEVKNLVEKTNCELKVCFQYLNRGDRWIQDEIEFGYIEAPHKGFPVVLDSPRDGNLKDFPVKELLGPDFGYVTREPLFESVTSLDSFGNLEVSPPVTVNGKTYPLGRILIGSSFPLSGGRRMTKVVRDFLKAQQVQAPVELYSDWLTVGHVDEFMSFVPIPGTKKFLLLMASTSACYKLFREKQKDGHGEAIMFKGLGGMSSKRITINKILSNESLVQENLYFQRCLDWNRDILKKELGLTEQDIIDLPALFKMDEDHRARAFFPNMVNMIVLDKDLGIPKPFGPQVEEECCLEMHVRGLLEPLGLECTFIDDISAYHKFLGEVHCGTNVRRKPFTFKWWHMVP

- OD (protein PADI2 [1]): 0.05 OD
- OD [2]: 0.92 OD
- OD (protein PADI2 [3]): 0.05 OD
- OD [4]: 0.46 OD
- OD (protein PADI2 [5]): 0.06 OD
- OD [6]: 4.13 OD
- OD (protein PADI2 [7]): 0.06 OD
- OD [8]: 0.04 OD
- OD (protein PADI2 [9]): 0.05 OD
- OD [10]: 1.69 OD
- OD (protein PADI2 [11]): 0.05 OD
- OD [12]: 2.47 OD
- OD (protein PADI2 [13]): 0.05 OD
- OD [14]: 3.95 OD
- OD (protein PADI2 [15]): 0.05 OD
- OD [16]: 3.53 OD
B1: monoclonal antibody 135-B9 (antibody, human IgG1, kappa, V domains shown)
VH: EVKLQESGPGILQPSQTLSLTCSFSGFSLSTSGMCVGWIRQPSGKGLEWLAHIWWDDDKRYNPALKSRLTISKDTSSNQVFLKIASVDTADTATYYCARYYRFDEGFDYWGQGTTLTVSS
VL: DIVITQDELSNPVTLGTSASISCRSSKSLLHSDGITYLYWYLQKPGQSPQLLIYQMSNLASGVPDRFSSSGSGTDFTLRISRVEAEDVGVYYCAQNLELPLTFGAGTKLELKR
